Results on four molecules are retold here after patent publication CN116082499A (DONGGUAN PENGZHI BIOTECHNOLOGY CO LTD, dated 2023).

For test [1], the target named is T1, DENV抗原 (DENV阳性血清) (dengue virus (DENV), serotype ).
T1 construct: also called DENV antigen in DENV-positive serum
Kind of test: sandwich ELISA, antibody at 0.78125 ng/ml captured on goat anti-mouse IgG, DENV-positive serum, HRP-labelled DENV mAb. For orientation: ELISA stands for enzyme-linked immunosorbent assay.

The target in test [2] is T2, DENV-IV抗原(一种NS1蛋白，购自菲鹏) (dengue virus serotype 4 (DENV-IV), UniProt P09866 775-1126, limits assumed).
T2 construct: also called DENV-IV antigen
T2 sequence (looked up): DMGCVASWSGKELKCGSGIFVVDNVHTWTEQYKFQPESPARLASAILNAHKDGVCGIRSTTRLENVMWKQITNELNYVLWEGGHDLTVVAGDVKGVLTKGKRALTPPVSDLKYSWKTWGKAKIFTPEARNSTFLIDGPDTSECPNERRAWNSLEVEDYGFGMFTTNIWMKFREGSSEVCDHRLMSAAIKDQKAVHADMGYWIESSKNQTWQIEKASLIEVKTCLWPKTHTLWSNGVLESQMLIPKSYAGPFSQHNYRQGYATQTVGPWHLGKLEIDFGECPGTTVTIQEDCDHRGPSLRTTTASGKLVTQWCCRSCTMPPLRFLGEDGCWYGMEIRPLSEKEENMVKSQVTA

The target of test [3] is T1, DENV抗原 (DENV阳性血清). Kind of test: sandwich ELISA, antibody at 3.125 ng/ml captured on goat anti-mouse IgG, DENV-positive serum, HRP-labelled DENV mAb.
The target in test [4] is T1, DENV抗原 (DENV阳性血清). Kind of test: sandwich ELISA, antibody at 1.5625 ng/ml captured on goat anti-mouse IgG, DENV-positive serum, HRP-labelled DENV mAb.
Test [5] has as its target T1, DENV抗原 (DENV阳性血清). Kind of test: sandwich ELISA, antibody at 6.25 ng/ml captured on goat anti-mouse IgG, DENV-positive serum, HRP-labelled DENV mAb.
The target of test [6] is T1, DENV抗原 (DENV阳性血清). Kind of test: sandwich ELISA, antibody at 12.5 ng/ml captured on goat anti-mouse IgG, DENV-positive serum, HRP-labelled DENV mAb.
Test [7] has as its target T1, DENV抗原 (DENV阳性血清). The test is described as follows: sandwich ELISA, antibody at 0 ng/ml (blank without antibody), goat anti-mouse IgG, DENV-positive serum, HRP-labelled DENV mAb.

B1: DF-5M32RMb1 (antibody, mouse IgG1, kappa, V domains shown)
VH: QVQLQQSGAELARPGASVKLSCKASGYTFINYWMQWVKQRPGQGLEWIGAIYPGDGDTRYTQNFKGKAALTADKSSSTAYMQLSSLASEDSAVYYCATGTEGILDYWGQGTSVTVSS
VL: DAVMTQTPLTLSVLIGQPASLSCKSSQSLLESDGKTYLNWLFQRPGQSPKRLIYLVSKLESGVPDRFTGSGSGTEFTLKISRVEAEDLGVYYCWQATHHPLTFGTGTNLELKR
notes: also called Anti-DF 5M32; Anti-DF 5M32单克隆抗体 (recombinant)
On to B1, for which the “OD (450nm, 参考630nm)” value is 0.489 OD in test [1]; 0.963 OD in test [3]; 0.654 OD in test [4]; 1.52 OD in test [5]; 2.1 OD in test [6]; 0.039 OD in test [7]. For the same molecule, in test [2], binding was characterised by a dissociation constant (Kd) of 59.6 nM. For the same molecule, the off-rate constant (koff) (as a rule, a measure of how fast the partners let go of each other) in test [2] is 0.00128 s⁻¹. In addition, the on-rate (kon) (commonly the rate constant with which the complex forms) in test [2] came to 21400 M⁻¹ s⁻¹.

B2: DF-5M32RMb4 (antibody, mouse IgG1, kappa, V domains shown)
VH: QVQLQQSGAELARPGASVKLSCKASGYTFINYWMQWVKQRPGQGLEWIGAIYPGDGDTRYTQNFKGKAALTADKSSSTAYMQLSSLASEDSAVYYCATGTEGLLDYWGQGTSVTVSS
VL: DAVMTQTPLTLSVLIGQPASLSCKSSQSLLESDGKTYLNWLFQRPGQSPKRLIYLVSKLESGVPDRFTGSGSGTEFTLKISRVEAEDLGVYYCWQATHHPLTFGTGTNLELKR
notes: also called DF-8F13RMb4
In the case of B2, the “OD (450nm, 参考630nm)” value in test [1] is 0.482 OD; in test [3] it was 0.923 OD; in test [4], 0.631 OD; in test [5] it was 1.49 OD; in test [6], 2.01 OD; in test [7], 0.032 OD. Besides, in test [2], the Kd – broadly, the free concentration of one partner at which half of the binding sites on the other are occupied at equilibrium, for simple one-to-one binding – is 52.9 nM. In test [2], this molecule yielded an off-rate constant (koff) of 0.00176 s⁻¹. In test [2], this molecule had an on-rate (kon) of 33200 M⁻¹ s⁻¹.

B3: DF-5M32RMb3 (antibody, mouse IgG1, kappa, V domains shown)
VH: QVQLQQSGAELARPGASVKLSCKASGYTFLNYWMQWVKQRPGQGLEWIGAIYPGDGDTRYTQNFKGKAALTADKSSSTAYMQLSSLASEDSAVYYCATGTEGILDYWGQGTSVTVSS
VL: DAVMTQTPLTLSVLIGQPASLSCKSSQSLLESDGKTYLNWLFQRPGQSPKRLIYLVSKLESGVPDRFTGSGSGTEFTLKISRVEAEDLGVYYCWQATHHPLTFGTGTNLELKR
notes: also called DF-8F13RMb3
Turning to B3, the “OD (450nm, 参考630nm)” value in test [1] worked out at 0.479 OD; in test [3] it was 0.952 OD; in test [4], 0.622 OD; in test [5], 1.5 OD; in test [6] it was 1.97 OD; in test [7] it was 0.043 OD. In test [2], this molecule showed a Kd of 63.6 nM. For the same molecule, the koff in test [2] came out at 0.00186 s⁻¹. The same molecule gave a kon in test [2] of 29300 M⁻¹ s⁻¹.

B4: DF-5M32RMb2 (antibody, mouse IgG1, kappa, V domains shown)
VH: QVQLQQSGAELARPGASVKLSCKASGYTFLNYWMQWVKQRPGQGLEWIGAIYPGDGDTRYTQNFKGKAALTADKSSSTAYMQLSSLASEDSAVYYCATGTEGLLDYWGQGTSVTVSS
VL: DAVMTQTPLTLSVLIGQPASLSCKSSQSLLESDGKTYLNWLFQRPGQSPKRLIYLVSKLESGVPDRFTGSGSGTEFTLKISRVEAEDLGVYYCWQATHHPLTFGTGTNLELKR
notes: also called DF-8F13RMb2
With B4, the “OD (450nm, 参考630nm)” value in test [1] was 0.471 OD; in test [3], 0.96 OD; in test [4], 0.603 OD; in test [5] it was 1.47 OD; in test [6], 2.04 OD; in test [7], 0.031 OD. In addition, the affinity in test [2], expressed as Kd, was 57.8 nM. For the same molecule, the off-rate (koff) in test [2] is 0.00184 s⁻¹. Besides, the on-rate (kon) in test [2] turned out to be 31900 M⁻¹ s⁻¹.
